Earlier results as cited in US20230220007A1, “SETD7 EPIGENETIC MODULATORS” (Biorchestra Co., Ltd., priority 2020, published 2023).

System: histone
Conditions: cited from earlier work; for monomethyl transferase activity: SETD7 substitution mutants; for histone monomethyl transferase activity: mutagenic studies on SETD7

Row | Molecule | monomethyl transferase activity | histone monomethyl transferase activity | further results
1 | Y245A: SETD7 substitution mutant at position 245 (protein) MDSDDEMVEEAVEGHLDDDGLPHGFCTVTYSSTDRFEGNFVHGEKNGRGKFFFFDGSTLEGYYVDDALQGQGVYTYEDGGVLQGTYVDGELNGPAQEYDTDGRLIFKGQYKDNIRHGVCWIYYPDGGSLVGEVNEDGEMTGEKIAYVYPDERTALYGKFIDGEMIEGKLATLMSTEEGRPHFELMPGNSVYHFDKSTSSCISTNALLPDPYESERVYVAESLISSAGEGLFSKVAVGPNTVMSFANGVRITHQEVDSRDWALNGNTLSLDEETVIDVPEPYNHVSKYCASLGHKANHSFTPNCIYDMFVHPRFGPIKCIRTLRAVEADEELTVAYGYDHSPPGKSGPEAPEWYQVELKAFQATQQK | significantly reduces | partial or complete loss | dimethyltransferase activity: increases
2 | E351A: SETD7 substitution mutant at position 351 (protein) MDSDDEMVEEAVEGHLDDDGLPHGFCTVTYSSTDRFEGNFVHGEKNGRGKFFFFDGSTLEGYYVDDALQGQGVYTYEDGGVLQGTYVDGELNGPAQEYDTDGRLIFKGQYKDNIRHGVCWIYYPDGGSLVGEVNEDGEMTGEKIAYVYPDERTALYGKFIDGEMIEGKLATLMSTEEGRPHFELMPGNSVYHFDKSTSSCISTNALLPDPYESERVYVAESLISSAGEGLFSKVAVGPNTVMSFYNGVRITHQEVDSRDWALNGNTLSLDEETVIDVPEPYNHVSKYCASLGHKANHSFTPNCIYDMFVHPRFGPIKCIRTLRAVEADEELTVAYGYDHSPPGKSGPEAPAWYQVELKAFQATQQK | partial loss | – | –
3 | W352A: SETD7 substitution mutant at position 352 (protein) MDSDDEMVEEAVEGHLDDDGLPHGFCTVTYSSTDRFEGNFVHGEKNGRGKFFFFDGSTLEGYYVDDALQGQGVYTYEDGGVLQGTYVDGELNGPAQEYDTDGRLIFKGQYKDNIRHGVCWIYYPDGGSLVGEVNEDGEMTGEKIAYVYPDERTALYGKFIDGEMIEGKLATLMSTEEGRPHFELMPGNSVYHFDKSTSSCISTNALLPDPYESERVYVAESLISSAGEGLFSKVAVGPNTVMSFYNGVRITHQEVDSRDWALNGNTLSLDEETVIDVPEPYNHVSKYCASLGHKANHSFTPNCIYDMFVHPRFGPIKCIRTLRAVEADEELTVAYGYDHSPPGKSGPEAPEAYQVELKAFQATQQK | complete loss | – | –
4 | E330A: SETD7 substitution mutant at position 330 (protein) MDSDDEMVEEAVEGHLDDDGLPHGFCTVTYSSTDRFEGNFVHGEKNGRGKFFFFDGSTLEGYYVDDALQGQGVYTYEDGGVLQGTYVDGELNGPAQEYDTDGRLIFKGQYKDNIRHGVCWIYYPDGGSLVGEVNEDGEMTGEKIAYVYPDERTALYGKFIDGEMIEGKLATLMSTEEGRPHFELMPGNSVYHFDKSTSSCISTNALLPDPYESERVYVAESLISSAGEGLFSKVAVGPNTVMSFYNGVRITHQEVDSRDWALNGNTLSLDEETVIDVPEPYNHVSKYCASLGHKANHSFTPNCIYDMFVHPRFGPIKCIRTLRAVEADEALTVAYGYDHSPPGKSGPEAPEWYQVELKAFQATQQK | – | partial or complete loss | –
5 | E329A: SETD7 substitution mutant at position 329 (protein) MDSDDEMVEEAVEGHLDDDGLPHGFCTVTYSSTDRFEGNFVHGEKNGRGKFFFFDGSTLEGYYVDDALQGQGVYTYEDGGVLQGTYVDGELNGPAQEYDTDGRLIFKGQYKDNIRHGVCWIYYPDGGSLVGEVNEDGEMTGEKIAYVYPDERTALYGKFIDGEMIEGKLATLMSTEEGRPHFELMPGNSVYHFDKSTSSCISTNALLPDPYESERVYVAESLISSAGEGLFSKVAVGPNTVMSFYNGVRITHQEVDSRDWALNGNTLSLDEETVIDVPEPYNHVSKYCASLGHKANHSFTPNCIYDMFVHPRFGPIKCIRTLRAVEADAELTVAYGYDHSPPGKSGPEAPEWYQVELKAFQATQQK | – | partial or complete loss | –
6 | N302A: SETD7 substitution mutant at position 302 (protein) MDSDDEMVEEAVEGHLDDDGLPHGFCTVTYSSTDRFEGNFVHGEKNGRGKFFFFDGSTLEGYYVDDALQGQGVYTYEDGGVLQGTYVDGELNGPAQEYDTDGRLIFKGQYKDNIRHGVCWIYYPDGGSLVGEVNEDGEMTGEKIAYVYPDERTALYGKFIDGEMIEGKLATLMSTEEGRPHFELMPGNSVYHFDKSTSSCISTNALLPDPYESERVYVAESLISSAGEGLFSKVAVGPNTVMSFYNGVRITHQEVDSRDWALNGNTLSLDEETVIDVPEPYNHVSKYCASLGHKANHSFTPACIYDMFVHPRFGPIKCIRTLRAVEADEELTVAYGYDHSPPGKSGPEAPEWYQVELKAFQATQQK | – | partial or complete loss | –
7 | Y353A: SETD7 substitution mutant at position 353 (protein) MDSDDEMVEEAVEGHLDDDGLPHGFCTVTYSSTDRFEGNFVHGEKNGRGKFFFFDGSTLEGYYVDDALQGQGVYTYEDGGVLQGTYVDGELNGPAQEYDTDGRLIFKGQYKDNIRHGVCWIYYPDGGSLVGEVNEDGEMTGEKIAYVYPDERTALYGKFIDGEMIEGKLATLMSTEEGRPHFELMPGNSVYHFDKSTSSCISTNALLPDPYESERVYVAESLISSAGEGLFSKVAVGPNTVMSFYNGVRITHQEVDSRDWALNGNTLSLDEETVIDVPEPYNHVSKYCASLGHKANHSFTPNCIYDMFVHPRFGPIKCIRTLRAVEADEELTVAYGYDHSPPGKSGPEAPEWAQVELKAFQATQQK | complete loss | – | –
8 | Q354A: SETD7 substitution mutant at position 354 (protein) MDSDDEMVEEAVEGHLDDDGLPHGFCTVTYSSTDRFEGNFVHGEKNGRGKFFFFDGSTLEGYYVDDALQGQGVYTYEDGGVLQGTYVDGELNGPAQEYDTDGRLIFKGQYKDNIRHGVCWIYYPDGGSLVGEVNEDGEMTGEKIAYVYPDERTALYGKFIDGEMIEGKLATLMSTEEGRPHFELMPGNSVYHFDKSTSSCISTNALLPDPYESERVYVAESLISSAGEGLFSKVAVGPNTVMSFYNGVRITHQEVDSRDWALNGNTLSLDEETVIDVPEPYNHVSKYCASLGHKANHSFTPNCIYDMFVHPRFGPIKCIRTLRAVEADEELTVAYGYDHSPPGKSGPEAPEWYAVELKAFQATQQK | partial loss | – | –
9 | H297A: SETD7 mutant protein with H297A mutation, abolishes methyltransferase activity (protein) MDSDDEMVEEAVEGHLDDDGLPHGFCTVTYSSTDRFEGNFVHGEKNGRGKFFFFDGSTLEGYYVDDALQGQGVYTYEDGGVLQGTYVDGELNGPAQEYDTDGRLIFKGQYKDNIRHGVCWIYYPDGGSLVGEVNEDGEMTGEKIAYVYPDERTALYGKFIDGEMIEGKLATLMSTEEGRPHFELMPGNSVYHFDKSTSSCISTNALLPDPYESERVYVAESLISSAGEGLFSKVAVGPNTVMSFYNGVRITHQEVDSRDWALNGNTLSLDEETVIDVPEPYNHVSKYCASLGHKANASFTPNCIYDMFVHPRFGPIKCIRTLRAVEADEELTVAYGYDHSPPGKSGPEAPEWYQVELKAFQATQQK | – | partial or complete loss | methyltransferase activity (enzymatic activity) (His297 mutation): abolishes
10 | Y335A: SETD7 substitution mutant at position 335 (protein) MDSDDEMVEEAVEGHLDDDGLPHGFCTVTYSSTDRFEGNFVHGEKNGRGKFFFFDGSTLEGYYVDDALQGQGVYTYEDGGVLQGTYVDGELNGPAQEYDTDGRLIFKGQYKDNIRHGVCWIYYPDGGSLVGEVNEDGEMTGEKIAYVYPDERTALYGKFIDGEMIEGKLATLMSTEEGRPHFELMPGNSVYHFDKSTSSCISTNALLPDPYESERVYVAESLISSAGEGLFSKVAVGPNTVMSFYNGVRITHQEVDSRDWALNGNTLSLDEETVIDVPEPYNHVSKYCASLGHKANHSFTPNCIYDMFVHPRFGPIKCIRTLRAVEADEELTVAAGYDHSPPGKSGPEAPEWYQVELKAFQATQQK | – | partial or complete loss | –
11 | E254A: SETD7 substitution mutant at position 254 (protein) MDSDDEMVEEAVEGHLDDDGLPHGFCTVTYSSTDRFEGNFVHGEKNGRGKFFFFDGSTLEGYYVDDALQGQGVYTYEDGGVLQGTYVDGELNGPAQEYDTDGRLIFKGQYKDNIRHGVCWIYYPDGGSLVGEVNEDGEMTGEKIAYVYPDERTALYGKFIDGEMIEGKLATLMSTEEGRPHFELMPGNSVYHFDKSTSSCISTNALLPDPYESERVYVAESLISSAGEGLFSKVAVGPNTVMSFYNGVRITHQAVDSRDWALNGNTLSLDEETVIDVPEPYNHVSKYCASLGHKANHSFTPNCIYDMFVHPRFGPIKCIRTLRAVEADEELTVAYGYDHSPPGKSGPEAPEWYQVELKAFQATQQK | – | partial or complete loss | –
12 | D270A: SETD7 substitution mutant at position 270 (protein) MDSDDEMVEEAVEGHLDDDGLPHGFCTVTYSSTDRFEGNFVHGEKNGRGKFFFFDGSTLEGYYVDDALQGQGVYTYEDGGVLQGTYVDGELNGPAQEYDTDGRLIFKGQYKDNIRHGVCWIYYPDGGSLVGEVNEDGEMTGEKIAYVYPDERTALYGKFIDGEMIEGKLATLMSTEEGRPHFELMPGNSVYHFDKSTSSCISTNALLPDPYESERVYVAESLISSAGEGLFSKVAVGPNTVMSFYNGVRITHQEVDSRDWALNGNTLSLAEETVIDVPEPYNHVSKYCASLGHKANHSFTPNCIYDMFVHPRFGPIKCIRTLRAVEADEELTVAYGYDHSPPGKSGPEAPEWYQVELKAFQATQQK | – | partial or complete loss | –
13 | N296A: SETD7 substitution mutant at position 296 (protein) MDSDDEMVEEAVEGHLDDDGLPHGFCTVTYSSTDRFEGNFVHGEKNGRGKFFFFDGSTLEGYYVDDALQGQGVYTYEDGGVLQGTYVDGELNGPAQEYDTDGRLIFKGQYKDNIRHGVCWIYYPDGGSLVGEVNEDGEMTGEKIAYVYPDERTALYGKFIDGEMIEGKLATLMSTEEGRPHFELMPGNSVYHFDKSTSSCISTNALLPDPYESERVYVAESLISSAGEGLFSKVAVGPNTVMSFYNGVRITHQEVDSRDWALNGNTLSLDEETVIDVPEPYNHVSKYCASLGHKAAHSFTPNCIYDMFVHPRFGPIKCIRTLRAVEADEELTVAYGYDHSPPGKSGPEAPEWYQVELKAFQATQQK | – | partial or complete loss | –
